Experimental data: patent US7052898B2, “Thermostable isomerase and use hereof, in particular for producing tagatose” (Bioneer A/S, priority 2001, dated 2006)
Like-named read-outs stand apart in the source and are kept apart here.

Legend:
[1] = tested on: Aerobacter aerogenes L-arabinose isomerase; conditions: read-out: Km for L-arabinose; Reference 1: Yamanaka and Wood (1966); cited from earlier work
[2] = tested on: Lactobacillus gayonii L-arabinose isomerase; conditions: read-out: Km for L-arabinose; Reference 5: Nakamatu and Yamanaka (1969); cited from earlier work
[3] = tested on: Escherichia coli L-arabinose isomerase; conditions: read-out: Km for L-arabinose; Reference 3: Patrick and Lee (1968); cited from earlier work
[4] = tested on: Lactobacillus plantarum L-arabinose isomerase; conditions: read-out: Km for L-arabinose; Reference 4: Heath et al. (1958); cited from earlier work
[5] = tested on: Mycobacterium smegmatis L-arabinose isomerase; conditions: read-out: Km for L-arabinose; Reference 6: J. Bacteriol. 133: 413-414 (1978); cited from earlier work
[6] = tested on: L-arabinose isomerase from T. mathranii; experiment: Metal ion requirement: reactivation of EDTA-dialysed enzyme; assay type: biochemical, Thermoanaerobacter mathranii; conditions: enzyme previously dialysed against 5 mM EDTA, metal salt added
Experimental: (§1) Enzyme sample, 10-50 μl, was mixed with 950 μl of assay reagent and incubated at 65° C. for 60 min.

[7] = cited from earlier work
[8] = end-product inhibition; cited from earlier work
[9] = substrate: OC1OC[C@H](O)[C@H](O)[C@H]1O; experiment: purified protein, by the assay type; conditions: other: apparent Km; T. mathranii enzyme produced in E. coli; pH 6.9; 65.0 °C
[10] = Bioconversion of D-galactose to D-tagatose with free enzyme; assay type: biochemical; conditions: 65° C.
Experimental: (§2) The obtained concentrations of the ketoses L-ribulose, D-tagatose or D-fuculose, respectively, were determined by the cysteine-carbazol-sulfuric acid method (Dische, Z. and Borenfreund, E. (1951) J. Biol. Chem. 192: 583-587). Samples were incubated at room temperature for 60 min and the absorbance at 560 nm was measured in a microplate reader. Standard curves showing the colour response of 0-5 mM ketose were made with D-tagatose and D-ribulose, since L-ribulose was not commercially available. (No standard curve was obtained for D-fuculose which was not commercially available.)
Control samples without enzyme were treated similarly. Periodically, samples were taken and the concentration of D-tagatose was determined by the cystein-carbazol-sulfuric acid method as described above. The results are shown in Table 2.2A (30% D-galactose) and 2.2B (60% D-galactose).

[11] = Substrate specificity: D-galactose activity relative to L-arabinose activity; assay type: biochemical; conditions: molar ratio of keto-sugar, substrate 0.5 M, pH 6.9, 65° C.
Experimental: as §1, §2
The ratio was calculated from the cysteine-carbazol-sulfuric acid colour responses and the standard curves generated with ribulose and tagatose, respectively.

[12] = Substrate specificity: D-fucose colour response relative to L-arabinose; assay type: biochemical; conditions: 0.5 M D-fucose, cysteine-carbazol-sulfuric acid method
Experimental: as §1, §2

[13] = pH dependence, D-galactose assay; assay type: biochemical; conditions: D-galactose assays at pH 4, 5, 6, 7, 8 and 9
Experimental: as §1, §2
The buffer used for these assays was a mixture of 25 mM acetic acid, 25 mM 2-[N-morpholino]ethanesulfonic acid (MES), 5 mM MnCl2, and 25 mM tris[hydroxymethyl]-aminomethane (TRIS), which was titrated with HCl or NaOH.

[14] = Substrate specificity: other aldo-hexoses, aldo-pentoses and deoxy-sugar; assay type: biochemical
Experimental: as §1, §2

[15] = Temperature dependence, D-galactose assay; assay type: biochemical; conditions: temperature range of about 60-75° C.
Experimental: as §1, §2

[16] = initial D-galactose 30% (1.67 M), pH 6.9, 0 h
[17] = initial D-galactose 30% (1.67 M), pH 6.9, 24 h
[18] = initial D-galactose 30% (1.67 M), pH 6.9, 48 h
[19] = initial D-galactose 30% (1.67 M), pH 6.9, 72 h
[20] = initial D-galactose 60% (3.33 M), pH 6.9, 0 h
[21] = initial D-galactose 60% (3.33 M), pH 6.9, 24 h
[22] = initial D-galactose 60% (3.33 M), pH 6.9, 48 h
[23] = initial D-galactose 60% (3.33 M), pH 6.9, 72 h

## OC1OC[C@H](O)[C@H](O)[C@H]1O (stereo partly drawn) [L-arabinose]
[1]
  Km: 33 mM
[2]
  Km: 55 mM
[3]
  Km: 60 mM
[4]
  Km: 28 mM
[5]
  Km: ~30 mM

## [Cl][Mn][Cl] [MnCl2]
[6]
  restored L-arabinose isomerase activity: 100%

## Lactobacillus plantarum
[7]; 10° C.
  amount of ketose at equilibrium: 10%
[7]; 25° C.
  amount of ketose at equilibrium: 14%
[7]; 53° C.
  amount of ketose at equilibrium: 16%

## O=S(=O)([O-])[O-].[Fe+2] [FeSO4]
[6]
  restored L-arabinose isomerase activity: 76%

B1: β-glycosidase from Sulfolobus solfataricus: extremely thermostable β-glycosidase from the thermoacidophilic archaeon Sulfolobus solfataricus, used as lactase (protein, UniProt P22498 1-489, looked up)
Beta-galactosidase: MYSFPNSFRFGWSQAGFQSEMGTPGSEDPNTDWYKWVHDPENMAAGLVSGDLPENGPGYWGNYKTFHDNAQKMGLKIARLNVEWSRIFPNPLPRPQNFDESKQDVTEVEINENELKRLDEYANKDALNHYREIFKDLKSRGLYFILNMYHWPLPLWLHDPIRVRRGDFTGPSGWLSTRTVYEFARFSAYIAWKFDDLVDEYSTMNEPNVVGGLGYVGVKSGFPPGYLSFELSRRAMYNIIQAHARAYDGIKSVSKKPVGIIYANSSFQPLTDKDMEAVEMAENDNRWWFFDAIIRGEITRGNEKIVRDDLKGRLDWIGVNYYTRTVVKRTEKGYVSLGGYGHGCERNSVSLAGLPTSDFGWEFFPEGLYDVLTKYWNRYHLYMYVTENGIADDADYQRPYYLVSHVYQVHRAINSGADVRGYLHWSLADNYEWASGFSMRFGLLKVDYNTKRLYWRPSALVYREIATNGAITDEIEHLNSVPPVKPLRH
[8]
  inhibition by galactose: not to be inhibited
  inhibition by glucose: only moderately inhibited

B2: Thermoanaerobacter mathranii DSMZ 11426 L-arabinose isomerase (AraA), wild type, SEQ ID NO:2, produced in E. coli (Thermoanaerobacter mathranii subsp. … (protein)
chain: MQTKKKPQIGFLGIMQELYDDMLPGITERQEKYAREVIEQLQDVADFHFPKAAKNRQDIEHIVKEFNEKDLDGIMIVMLTYGPATNIVNALRNNKLPIMLANIQPVPTVTEDWDMGDLTYNQGVHGAQDTANAILRMGIKCPIITEEWHSEEFKKFVGDWAKAVQTIKALRNMKIAQFGRMHGMYDILGDDAAFTRKIGPQINQEYIGEVYRYMETATEEEINAVIEENRKNFYIDPNLSEESHRYAARLQIGFKKFLINKGYDGFTAHFDVFKGDGRFKQIPMMAASNLMAEGYGYAAEGDAVTASLVAAGHVLIGDAHFTEMYAMDFKRNSILMSHMGEGNWKIARKDRPIKLIDRELGIGKLDNPPTIVFMAQPGPATLVSLVSLEGERYRLVVSKGEILDTEEAKYIEMPYFHFRPSTGVKACLDGWLTNGGTHHECLNLGDNTRRWKILCNLLDIEYVEV
[9]
  Km: 80 mM and ˜80 mM

B3: L-arabinose isomerase from T. mathranii: L-arabinose isomerase (araA gene product, 465 amino acid residues) of Thermoanaerobacter mathranii DSMZ 11426 produced in E. coli; used as cell extract (protein)
chain: B2 chain
modifications: Thermoanaerobacter matrahnii, araA sequence
notes: used as cell extract
[10]; [16]
  Conc. of D-tagatose: 0 mM
  Percent bioconversion: 0
[10]; [17]
  Conc. of D-tagatose: 427 mM
  Percent bioconversion: 25
[10]; [18]
  Conc. of D-tagatose: 450 mM
  Percent bioconversion: 26
[10]; [19]
  Conc. of D-tagatose: 422 mM
  Percent bioconversion: 25
[10]; [20]
  Conc. of D-tagatose: 0 mM
  Percent bioconversion: 0
[10]; [21]
  Conc. of D-tagatose: 462 mM
  Percent bioconversion: 14
[10]; [22]
  Conc. of D-tagatose: 542 mM
  Percent bioconversion: 16
[10]; [23]
  Conc. of D-tagatose: 622 mM
  Percent bioconversion: 19
[11]
  D-galactose activity as percent of the L-arabinose activity: 21%
[12]
  colour response with D-fucose as percent of the response with L-arabinose: 46%
[13]
  pH of highest activity: 8
[14]; substrate D-arabinose
  enzyme activity with D-arabinose: No significant enzyme activity
[14]; substrate D-glucose
  enzyme activity with D-glucose: No significant enzyme activity
[14]; substrate D-mannose
  enzyme activity with D-mannose: No significant enzyme activity
[14]; substrate D-ribose
  enzyme activity with D-ribose: No significant enzyme activity
[14]; substrate D-xylose
  enzyme activity with D-xylose: No significant enzyme activity
[14]; substrate L-fucose
  enzyme activity with L-fucose: No significant enzyme activity
[14]; substrate L-ribose
  enzyme activity with L-ribose: No significant enzyme activity
[15]
  share of the maximum activity retained: ≥ 70%
